PMC11018308
pKd: −log10 of the molar value.

How the values were obtained:
[1] = target: cell-surface mucins (on HeLa cells); assay: flow cytometry on cells (anti-His staining, HeLa); details: 30 min at 4 °C in the presence of EDTA, n = 3 biologically independent replicates, read off a plot
[2] = target: cell-surface mucins (on HeLa cells); assay: flow cytometry on cells; HeLa cells treated with His-tagged mucinases in cold FACS buffer (0.5% BSA in PBS) with 2 mM EDTA and 0.1% benzonase, 30 min on ice (4 °C); EDTA prevents enzyme activity; bound enzyme detected with FITC anti-His; effective (apparent) Kd from fits of normalised MFI

Substance	pKd ([1]; parent: est. 130 nM)	pKd [2]	also measured
StcE, zinc metalloprotease (mucinase) from Escherichia coli serotype O157:H7 (from UniProt O82882) Y457W	6.92	–	–
double deletion StcE (ΔC and ΔINS) (from UniProt O82882) Y457A	–	–	pKd ([1]; parent: est. 1300 nM): 5.89
StcE, zinc metalloprotease (mucinase) from Escherichia coli serotype O157:H7 (from UniProt O82882) Y457A	6.92	–	–
ddStcE^W366A, engineered StcE (from UniProt O82882 36-898) (enzyme)	–	5.70	–
StcE, zinc metalloprotease (mucinase) from Escherichia coli serotype O157:H7 (from UniProt O82882) W366F	7.02	–	–
ddStcE^H367A (from UniProt O82882 36-898) (enzyme)	–	5.70	–
